Measured values: US12139520B2 (priority 2020, dated 2024)
Bridge positions count the residues as written; N and C are the ends. Square brackets hold non-standard residues; d marks the D form. Ends that are not written are not given here. Hyp = O=C(O)[C@@H]1C[C@@H](O)CN1; Cit = NC(=O)NCCC[C@H](N)C(=O)O

Legend:
hAMY3R = molecular target: T1, hAMY3R (human, UniProt P30988); assay: cell-based or functional assay
T1 sequence 1: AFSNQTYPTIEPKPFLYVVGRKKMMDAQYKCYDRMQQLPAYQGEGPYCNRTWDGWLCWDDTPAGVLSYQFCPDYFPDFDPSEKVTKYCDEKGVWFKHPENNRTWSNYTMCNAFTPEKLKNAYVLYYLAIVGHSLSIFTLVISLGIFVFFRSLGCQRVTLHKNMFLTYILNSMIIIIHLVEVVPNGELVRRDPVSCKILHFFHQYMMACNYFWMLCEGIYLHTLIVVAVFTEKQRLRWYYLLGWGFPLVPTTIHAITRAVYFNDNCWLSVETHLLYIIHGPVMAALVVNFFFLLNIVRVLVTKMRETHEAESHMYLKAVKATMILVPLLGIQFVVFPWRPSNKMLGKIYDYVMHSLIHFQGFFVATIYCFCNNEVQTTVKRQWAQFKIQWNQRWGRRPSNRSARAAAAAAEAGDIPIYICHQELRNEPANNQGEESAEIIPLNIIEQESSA
T1 sequence 2: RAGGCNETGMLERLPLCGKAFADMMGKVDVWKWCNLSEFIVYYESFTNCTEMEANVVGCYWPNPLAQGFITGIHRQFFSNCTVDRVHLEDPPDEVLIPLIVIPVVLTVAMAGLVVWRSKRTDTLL

hAM1R = hAM1R (human, UniProt Q16602); assay: cell-based or functional assay

Row | Binder | hAMY3R EC50 (cAMP) (hAMY3R) [nM] | hAM1R EC50 (cAMP) (hAM1R) [nM]
1 | RCNASTCTVNWLADQITQFSNKDKAQVSPPTEVGPNS[Hyp]-NH2 (disulfide 2-7 (inferred); ends not checked) [SEQ ID NO: 307] | 0.01 | > 5000
2 | GCRFGTCTVQ[Cit]LAHQIYQFTDKDKDNVAPRSNVGPQG[Hyp]-NH2 (disulfide 2-7 (inferred); ends not checked) [SEQ ID NO: 289] | 0.005 | 3500
3 | GCRTGTCTVQ[Cit]LAHQIYQFTDKDKDNVAPRSNIGPNG[Hyp]-NH2 (disulfide 2-7 (inferred); ends not checked) [SEQ ID NO: 297] | 0.026 | > 5000
4 | GCRTGTCTVQ[Cit]LAHQIYQFTDKDKDNVAPRTKVGPQG[Hyp]-NH2 (disulfide 2-7 (inferred); ends not checked) [SEQ ID NO: 292] | 0.07 | > 5000
5 | GCRTGTCTVQ[Cit]LAHQIYQFTDKDKDNVAPRTNVSPNG[Hyp]-NH2 (disulfide 2-7 (inferred); ends not checked) [SEQ ID NO: 302] | 0.071 | 4330
6 | GCRTGTCTVQ[Cit]LAHQIYQFTDKDKDNVAPRSNIGPQG[Hyp]-NH2 (disulfide 2-7 (inferred); ends not checked) [SEQ ID NO: 303] | 0.103 | > 5000
7 | GCRFGTCTVQ[Cit]LAHQIYQFTDKDKDNVAPRTKISPQG[Hyp]-NH2 (disulfide 2-7 (inferred); ends not checked) [SEQ ID NO: 294] | 0.045 | > 5000
8 | GCRTGTCTVQ[Cit]LAHQIYQFTDKDKDNVAPRSNVSPNG[Hyp]-NH2 (disulfide 2-7 (inferred); ends not checked) [SEQ ID NO: 304] | 0.139 | > 5000
9 | GCRIGTCTVQ[Cit]LAHQIYQFTDKFKDNVAPRSKISPQT[Hyp]-NH2 (disulfide 2-7 (inferred); ends not checked) [SEQ ID NO: 295] | 0.194 | > 5000
10 | KCNTATCTVQRLAHQIYQFTDKDKDNVPPTNVGSNG[Hyp]-NH2 (disulfide 2-7 (inferred); not fully specified; ends not checked) [SEQ ID NO: 30] | 0.008 | > 5000
11 | GCRFGTCTVQ[Cit]LAHQIYQFTDKDKDNVAPRTNISPQG[Hyp]-NH2 (disulfide 2-7 (inferred); ends not checked) [SEQ ID NO: 291] | 0.064 | > 5000
12 | GCRTGTCTVQ[Cit]LAHQIYQFTDKDKDNVAPRTKIGPQG[Hyp]-NH2 (disulfide 2-7 (inferred); ends not checked) [SEQ ID NO: 301] | 0.138 | > 5000
13 | GCRFGTCTVQ[Cit]LAHQIYQFTDKDKDNVAPRSNISPQG[Hyp]-NH2 (disulfide 2-7 (inferred); ends not checked) [SEQ ID NO: 300] | 0.076 | > 5000
14 | KCNTATCTVQRLAHQIYQFTDKDKDNVAPTNVGSNG[Hyp]-NH2 (disulfide 2-7 (inferred); ends not checked) [SEQ ID NO: 31] | 0.008 | > 5000
15 | GCRTGTCTVQ[Cit]LAHQIYQFTDKDKDNVAPRSKVGPNG[Hyp]-NH2 (disulfide 2-7 (inferred); ends not checked) [SEQ ID NO: 290] | 0.047 | > 5000
16 | KCNTATCTVQWLAHQIAQFTDKDKDNVAPPTNVGSNG[Hyp]-NH2 (disulfide 2-7 (inferred); ends not checked) [SEQ ID NO: 309] | 0.025 | > 5000
17 | GCRFGTCTVQ[Cit]LAHQIYQFTDKDKDNVAPRSKVSPQG[Hyp]-NH2 (disulfide 2-7 (inferred); ends not checked) [SEQ ID NO: 305] | 0.085 | > 5000
18 | GCRTGTCTVQ[Cit]LAHQIYQFTDKDKDNVAPRTKVGPQGY-NH2 (disulfide 2-7 (inferred); ends not checked) [SEQ ID NO: 298] | 0.057 | > 5000
19 | KCNTSTCTVAWLADQITQFSNKDKAQVSPPTEVGPNS[Hyp]-NH2 (disulfide 2-7 (inferred); ends not checked) [SEQ ID NO: 306] | 0.003 | > 5000
20 | KCNTATCTVQWLAHAIYQFTDKDKDNVAPPTNVGSNG[Hyp]-NH2 (disulfide 2-7 (inferred); ends not checked) [SEQ ID NO: 308] | 0.014 | > 5000
21 | GCRTGTCTVQ[Cit]LAHQIYQFTDKDKDNVAPRSKIGPNG[Hyp]-NH2 (disulfide 2-7 (inferred); ends not checked) [SEQ ID NO: 299] | 0.11 | > 5000
22 | GCRFGTCTVQ[Cit]LAHQIYQFTDKDKDNVAPRSNVSPQG[Hyp]-NH2 (disulfide 2-7 (inferred); ends not checked) [SEQ ID NO: 293] | 0.063 | > 5000
23 | GCRWGTCTVQ[Cit]LAHQIYQFTDKDKDNVAPRSKISPQT[Hyp]-NH2 (disulfide 2-7 (inferred); ends not checked) [SEQ ID NO: 296] | 0.392 | > 5000
